Here are results for 3 molecules from patent US20220009986A1 (AMBRX, published 2022).

Test in all cases: cell-based or functional assay
Experiment [1] deals with T1, endogenous IL-10 receptors of MC/9 cells (mouse mast cell line) (mouse, UniProt Q61727 17-575).
T1 sequence (looked up): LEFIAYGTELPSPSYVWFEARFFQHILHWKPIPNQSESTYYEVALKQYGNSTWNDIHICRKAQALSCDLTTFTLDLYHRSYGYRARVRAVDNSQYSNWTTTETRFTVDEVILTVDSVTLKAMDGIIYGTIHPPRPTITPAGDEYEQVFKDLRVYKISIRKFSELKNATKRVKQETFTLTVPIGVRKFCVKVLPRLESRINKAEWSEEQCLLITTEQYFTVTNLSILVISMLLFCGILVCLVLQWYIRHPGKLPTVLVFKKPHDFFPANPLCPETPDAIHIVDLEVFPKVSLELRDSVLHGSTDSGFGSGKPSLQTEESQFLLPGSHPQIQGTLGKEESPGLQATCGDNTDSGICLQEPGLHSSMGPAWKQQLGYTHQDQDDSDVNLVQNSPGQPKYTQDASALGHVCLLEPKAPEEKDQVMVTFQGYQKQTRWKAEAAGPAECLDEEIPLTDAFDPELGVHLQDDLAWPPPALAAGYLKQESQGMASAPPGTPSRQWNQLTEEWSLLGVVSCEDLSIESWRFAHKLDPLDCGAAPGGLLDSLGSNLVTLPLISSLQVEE

For experiment [2], the target named is T1, endogenous IL-10 receptors of MC/9 …. This is another data set of the same source.
Experiment [3] has the same target. The source holds these as a separate data set.
Experiment [4] shares this target. This is another data set of the same source.

Where “and” joins values, the source holds several entries; their conditions need not be identical. Equal values may be shown once. Read-outs that look alike come from different tables or passages of the source.

B1: IL-10 wild type (mature wild type human IL-10) (ligand)
chain: SPGQGTQSENSCTHFPGNLPNMLRDLRDAFSRVKTFFQMKDQLDNLLLKESLLEDFKGYLGCQALSEMIQFYLEEVMPQAENQDPDIKAHVNSLGENLKTLRLRLRRCHRFLPCENKSKAVEQVKNAFNKLQEKGIYKAMSEFDIFINYIEAYMTMKIRN
In the case of B1, the “EC50 (ng/ml), MC/9 proliferation assay” value is 0.42 ng/mL in experiment [1]; 0.303 ng/mL and 0.105 ng/mL in experiment [2]; 1 ng/mL in experiment [3]; 0.14 ng/mL in experiment [4].

B2: 5K PEG-hIL-10 wt (ligand)
chain: SPGQGTQSENSCTHFPGNLPNMLRDLRDAFSRVKTFFQMKDQLDNLLLKESLLEDFKGYLGCQALSEMIQFYLEEVMPQAENQDPDIKAHVNSLGENLKTLRLRLRRCHRFLPCENKSKAVEQVKNAFNKLQEKGIYKAMSEFDIFINYIEAYMTMKIRN
modifications: N-terminal PEGylation with 5K PEG
Take B2: in experiment [4], the “EC50 (ng/ml), MC/9 proliferation assay” value is 4.76 ng/mL.

B3: 10K PEG-hIL-10 wt (ligand)
chain: SPGQGTQSENSCTHFPGNLPNMLRDLRDAFSRVKTFFQMKDQLDNLLLKESLLEDFKGYLGCQALSEMIQFYLEEVMPQAENQDPDIKAHVNSLGENLKTLRLRLRRCHRFLPCENKSKAVEQVKNAFNKLQEKGIYKAMSEFDIFINYIEAYMTMKIRN
modifications: N-terminal PEGylation with 10K PEG
B3: in experiment [4], the “EC50 (ng/ml), MC/9 proliferation assay” value is 21.8 ng/mL.
